Measurements: US20080026996A1, “Selective Vpac2 Receptor Reptide Agonists” (ELI LILLY AND COMPANY, priority 2004, published 2008)
Where no end group is shown, it is not given here. [ ]: non-standard residue; d: D form. The star is where a group is joined. Met(O) = CS(=O)CC[C@H](N)C(=O)O; NMeV = CN[C@H](C(=O)O)C(C)C; NMeA = CN[C@@H](C)C(=O)O; Hexanoyl = CCCCCC(=O)*; Aib = CC(C)(N)C(=O)O; Mpa = O=C(O)CCS

T1: human VPAC2 receptor (human, UniProt P41587 24-438)
T1 sequence (looked up): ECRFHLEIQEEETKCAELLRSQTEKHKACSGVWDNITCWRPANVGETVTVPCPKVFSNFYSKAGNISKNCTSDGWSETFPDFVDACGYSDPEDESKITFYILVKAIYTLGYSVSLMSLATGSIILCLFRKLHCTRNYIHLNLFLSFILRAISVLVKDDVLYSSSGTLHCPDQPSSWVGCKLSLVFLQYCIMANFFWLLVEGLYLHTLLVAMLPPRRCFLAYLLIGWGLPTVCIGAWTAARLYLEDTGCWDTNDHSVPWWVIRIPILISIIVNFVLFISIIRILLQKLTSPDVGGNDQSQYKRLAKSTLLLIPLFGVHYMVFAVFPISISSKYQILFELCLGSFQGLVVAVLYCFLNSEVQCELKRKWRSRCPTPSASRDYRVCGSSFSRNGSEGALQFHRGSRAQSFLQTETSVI


Each binder was assayed against T1, human VPAC2 receptor (assay: cell-based or functional assay).

Row | Binder | EC50 cAMP, Alpha Screen [nM]
1 | Hexanoyl-HSDAVFTLNYTRLRKQVAAKKYLQSIKNKRYGGPSSGAPPPS [P161] | 4
2 | Hexanoyl-HSDAVFTDNYTRLRKQVAAKKYWQSIKNKRYGGPSSGAPPPS [P230] | 0.3
3 | Hexanoyl-HSDAVFTDNYTRLRKQVAAKKYVQSIKNKRYGGPSSGAPPPS [P234] | 0.16
4 | Hexanoyl-HSDAVFTRNYTRLRKQVAAKKYLQSIKNKRYGGPSSGAPPPS [P162] | 11.1
5 | Hexanoyl-HSDAVFTDNYTRLLAKLALQKYLQSIKNKRYGGPSSGAPPPC [P164] | 0.11
6 | Hexanoyl-HSDAVFTDNYTRLQKQVAAKQYLQSIKNKRYGGPSSGAPPPS [P253] | 0.46
7 | Hexanoyl-HSDAVFTDNYTRLRKQVAAKKYIQSIKNKRYGGPSSGAPPPS [P233] | 0.11
8 | Hexanoyl-HSDAVFTDNYTRLRKQVAGKKYLQSIKNKRYGGPSSGAPPPS [P275] | 0.32
9 | Hexanoyl-HSDAVFTDNYTRLRKQLAAKKYLQSIKNKRYGGPSSGAPPPS [P290] | 0.22
10 | Hexanoyl-HSDAVFTDNYTRLRFQVAAKKYLQSIKNKRYGGPSSGAPPPS [P180] | 1.04
11 | Hexanoyl-HSDAVFTDQYTRLLAKLALQKYLQSIKQKRYGGPSSGAPPPS [P192] | 0.18
12 | Hexanoyl-HSDAVFTDNYTRLFKQVAAKKYLQSIKNKRYGGPSSGAPPPS [P175] | 0.68
13 | Hexanoyl-HSDAVFTDNYTRLLAKVALQKYLQSIKNKRYGGPSSGAPPPS [P196] | 0.23
14 | Hexanoyl-HSDAVFTDNYTRLRKQVAAKQYLQSIKNKRYGGPSSGAPPPS [P183] | 0.14
15 | Hexanoyl-HSDAVFTDNYTRLRKQVAAAKYLQSIKNKRYGGPSSGAPPPS [P181] | 0.13
16 | Hexanoyl-HSDAVFTDNYTRLRKQVAAKKYAQSIKNKRYGGPSSGAPPPS [P235] | 0.82
17 | Hexanoyl-HSDAVFTDNYTRLAKQVAAKKYLQSIKNKRYGGPSSGAPPPS [P173] | 0.25
18 | Hexanoyl-HSDAVFTYNYTRLRKQVAAKKYLQSIKNKRYGGPSSGAPPPS [P163] | 5.53
19 | Hexanoyl-HSDAVFTDNYTRLRKQVAAKLYLQSIKNKRYGGPSSGAPPPS [P185] | 0.18
20 | Hexanoyl-HSDAVFTDNYTRLRKQVAAKKYFQSIKNKRYGGPSSGAPPPS [P231] | 0.26
21 | Hexanoyl-HSDAVFTDNYTRLRLQVAAKKYLQSIKNKRYGGPSSGAPPPS [P179] | 0.24
22 | Hexanoyl-HSDALFTDNYTRLRKQVAAKKYLQSIKNKRYGGPSSGAPPPS [P289] | 0.16
23 | Hexanoyl-HSDAVFTDNYTRLQKQVAAQKYLQSIKNKRYGGPSSGAPPPS [P252] | 0.26
24 | Hexanoyl-HSDAVFTDNYTRLRKQVAAKFYLQSIKNKRYGGPSSGAPPPS [P186] | 0.15

Row | Binder | EC50 cAMP, Alpha Screen [nM]
25 | Hexanoyl-HSDAVFTDNYTRLLAQLALQKYLQSIKNKRYGGPSSGAPPPS [P195] | 0.25
26 | Hexanoyl-HSDAVFTDNYTRLLAKLAAQKYLQSIKNKRYGGPSSGAPPPS [P197] | 0.09
27 | Hexanoyl-HSDAVFTDNYTRLRKQVAAKKYLQSIKNKRFGGPSSGAPPPS [P203] | 0.14
28 | Hexanoyl-HSDAVFTEEYTRLQKQVAAKQYLQSIKNKRYGGPSSGAPPPS [P165] | 0.94
29 | Hexanoyl-HSDAVFTDNYTRLRKQVAAKRYLQSIKNKRYGGPSSGAPPPS [P182] | 0.29
30 | Hexanoyl-HSEAVFTDNYTRLRKQVAAKKYLQSIKNKRYGGPSSGAPPPS [P224] | 0.14
31 | Hexanoyl-HSDAVFTDNYTRLRRQVAAKKYLQSIKNKRYGGPSSGAPPPS [P176] | 0.28
32 | Hexanoyl-HSDAVFTDNYTRLLKQVAAKKYLQSIKNKRYGGPSSGAPPPS [P174] | 0.26
33 | Hexanoyl-HSDAVFTDNYTRLKKQVAAKKYLQSIKNKRYGGPSSGAPPPS [P171] | 0.82
34 | Hexanoyl-HSDAVFTDNYTRLRKQVAAKAYLQSIKNKRYGGPSSGAPPPS [P184] | 0.22
35 | Hexanoyl-HSDAVFTDQYTRLRRQVAARKYLQSIRQGGPSSGAPPPS [P220] | 0.12
36 | Hexanoyl-HSDIVFTDNYTRLRKQVAAKKYLQSIKNKRYGGPSSGAPPPS [P221] | 1.98
37 | Hexanoyl-HSDA[Aib]FTDNYTRLRKQVAAKKYLQSIKNKRYGGPSSGAPPPS (ends and bridges not checked) [P212] | 0.12
38 | Hexanoyl-HSD[dA]VFTDNYTRLRKQVAAKKYLQSIKNKRYGGPSSGAPPPS [P207] | 0.86
39 | [Met(O)]HSDAVFTDNYTRLRKQVAAKKYLQSIKNKRYGGPSSGAPPPS (ends and bridges not checked) [P199] | 29.6
40 | Hexanoyl-HSDLVFTDNYTRLRKQVAAKKYLQSIKNKRYGGPSSGAPPPS [P223] | 5.82
41 | Hexanoyl-HSDA[NMeV]FTDNYTRLRKQVAAKKYLQSIKNKRYGGPSSGAPPPS [P211] | 989
42 | Hexanoyl-HSDA[dV]FTDNYTRLRKQVAAKKYLQSIKNKRYGGPSSGAPPPS [P210] | 0.91
43 | Hexanoyl-HSD[NMeA]VFTDNYTRLRKQVAAKKYLQSIKNKRYGGPSSGAPPPS [P208] | 50.1
44 | [Mpa]HSDAVFTDNYTRLLAKLALQKYLQSIKNKRYGGPSSGAPPPS [P205] | 1.14
45 | Hexanoyl-HSD[Aib]VFTDNYTRLRKQVAAKKYLQSIKNKRYGGPSSGAPPPS (ends and bridges not checked) [P209] | 0.1
46 | Hexanoyl-HSDAVFTDNYTRLRKQVAAKK[Aib]LQSIKNKRYGGPSSGAPPPS (ends and bridges not checked) [P228] | 3.48
47 | Hexanoyl-HSDAVFTDNYTRLRK(Ac)QVAAKK(Ac)YLQSIKNKRYGGPSSGAPPPS [P194] | 0.13
